# From the supplement of paper PMC11246515
# ± gives the standard deviation of the averaged measurements.
# Assay: total protein half-life in vivo (active degradation + dilution); higher = more stable protein
# [1] = E. coli NCM3722 delta-clpP delta-lon delta-hslV, growth: N-lim chemostat, doubling time 6 h
# [2] = E. coli NCM3722 delta-clpP, growth: N-lim chemostat, doubling time 6 h
# [3] = E. coli NCM3722 delta-hslV, growth: N-lim chemostat, doubling time 6 h
# [4] = E. coli NCM3722 delta-lon, growth: N-lim chemostat, doubling time 6 h
# [5] = E. coli NCM3722 delta-smpB, growth: N-lim chemostat, doubling time 6 h
# [6] = wild type E. coli NCM3722, growth: C-lim chemostat, doubling time 3 h
# [7] = wild type E. coli NCM3722, growth: C-lim chemostat, doubling time 6 h
# [8] = wild type E. coli NCM3722, growth: C-lim chemostat, doubling time 12 h
# [9] = wild type E. coli NCM3722, growth: N-lim chemostat, doubling time 6 h
# [10] = wild type E. coli NCM3722, growth: N-lim chemostat, doubling time 12 h
# [11] = wild type E. coli NCM3722, growth: P-lim chemostat, doubling time 6 h
# [12] = wild type E. coli NCM3722, growth: P-lim chemostat, doubling time 12 h
sequence,measurement,setting,value
MKKTAIAIAVALAGFATVAQAAPKDNTWYTGAKLGWSQYHDTGFINNNGPTHENQLGAGAFGGYQVNPYVGFEMGYDWLGRMPYKGSVENGAYKAQGVQLTAKLGYPITDDLDIYTRLGGMVWRADTKSNVYGKNHDTGVSPVFAGGVEYAITPEIATRLEYQWTNNIGDAHTIGTRPDNGMLSLGVSYRFGQGEAAPVVAPAPAPAPEVQTKHFTLKSDVLFNFNKATLKPEGQAALDQLYSQLSNLDPKDGSVVVLGYTDRIGSDAYNQGLSERRAQSVVDYLISKGIPADKISARGMGESNPVTGNTCDNVKQRAALIDCLAPDRRVEIEVKGIKDVVTQPQA [P0A910],total protein half-life in vivo,[1],6.64 ± 0.48 h
same,total protein half-life in vivo,[2],6.96 ± 0.27 h
same,total protein half-life in vivo,[3],6.86 ± 0.49 h
same,total protein half-life in vivo,[4],7.032 ± 0.055 h
same,total protein half-life in vivo,[5],5.84 ± 0.27 h
same,total protein half-life in vivo,[6],3.41 ± 0.11 h
same,total protein half-life in vivo,[7],6.7 ± 0.097 h
same,total protein half-life in vivo,[8],13 ± 1.5 h
same,total protein half-life in vivo,[9],6.3 ± 0.41 h
same,total protein half-life in vivo,[10],13.6 ± 0.81 h
same,total protein half-life in vivo,[11],6.224 ± 0.024 h
same,total protein half-life in vivo,[12],15 ± 0.76 h
MASISSLGVGSGLDLSSILDSLTAAQKATLTPISNQQSSFTAKLSAYGTLKSALTTFQTANTALSKADLFSATSTTSSTTAFSATTAGNAIAGKYTISVTHLAQAQTLTTRTTRDDTKTAIATSDSKLTIQQGGDKDPITIDISAANSSLSGIRDAINNAKAGVSASIINVGNGEYRLSVTSNDTGLDNAMTLSVSGDDALQSFMGYDASASSNGMEVSVAAQNAQLTVNNVAIENSSNTISDALENITLNLNDVTTGNQTLTITQDTSKAQTAIKDWVNAYNSLIDTFSSLTKYTAVDAGADSQSSSNGALLGDSTLRTIQTQLKSMLSNTVSSSSYKTLAQIGITTDPSDGKLELDADKLTAALKKDASGVGALIVGDGKKTGITTTIGSNLTSWLSTTGIIKAATDGVSKTLNKLTKDYNAASDRIDAQVARYKEQFTQLDVLMTSLNSTSSYLTQQFENNSNSK,total protein half-life in vivo,[2],> 8 h
same,total protein half-life in vivo,[3],> 8 h
same,total protein half-life in vivo,[5],> 8 h
same,total protein half-life in vivo,[6],1.4 ± 0.12 h
same,total protein half-life in vivo,[7],0.627 ± 0.1 h
same,total protein half-life in vivo,[8],0.906 ± 0.44 h
same,total protein half-life in vivo,[10],> 16 h
same,total protein half-life in vivo,[11],> 8 h
same,total protein half-life in vivo,[12],> 16 h
MHLITQKALKDAAEKYPQHKTELVALGNTIAKGYFKKPESLKAVFPSLDNFKYLDKHYVFNVGGNELRVVAMVFFESQKCYIREVMTHKEYDFFTAVHRTKGKK,total protein half-life in vivo,[11],6.72 h
same,total protein half-life in vivo,[12],10.1 ± 0.64 h
MTLRKILALTCLLLPMMASAHQFETGQRVPPIGITDRGELVLDKDQFSYKTWNSAQLVGKVRVLQHIAGRTSAKEKNATLIEAIKSAKLPHDRYQTTTIVNTDDAIPGSGMFVRSSLESNKKLYPWSQFIVDSNGVALGAWQLDEESSAVVVLDKDGRVQWAKDGALTPEEVQQVMDLLQKLLK,total protein half-life in vivo,[1],3.41 ± 0.29 h
same,total protein half-life in vivo,[2],4.29 ± 0.11 h
same,total protein half-life in vivo,[3],5.19 h
same,total protein half-life in vivo,[4],5.62 ± 0.11 h
same,total protein half-life in vivo,[5],5.29 ± 0.49 h
same,total protein half-life in vivo,[6],2.78 ± 0.033 h
same,total protein half-life in vivo,[7],4.952 ± 0.046 h
same,total protein half-life in vivo,[8],7.33 ± 1.6 h
same,total protein half-life in vivo,[9],5.43 ± 0.29 h
same,total protein half-life in vivo,[10],7.61 ± 2.1 h
same,total protein half-life in vivo,[11],4.74 ± 1.5 h
same,total protein half-life in vivo,[12],8.359 ± 0.082 h
MLSLYEKIKIRLIILFLLAALSFIGLFFIINYQLVSERAVKRADSRFELIQKNVGYFFKDIERSALTLKDSLYLLKNTEEIQRAVILKMEMMPFLDSVGLVLDDNKYYLFSRRANDKIVVYHQEQVNGPLVDESGRVIFADFNPSKRPWSVASDDSNNSWNPAYNCFDRPGKKCISFTLHINGKDHDLLAVDKIHVDLNWRYLNEYLDQISANDEVLFLKQGHEIIAKNQLAREKLIIYNSEGNYNIIDSVDTEYIEKTSAVPNNALFEIYFYYPGGNLLNASDKLFYLPFAFIIIVLLVVYLMTTRVFRRQFSEMTELVNTLAFLPDSTDQIEALKIREGDAKEIISIKNSIAEMKDAEIERSNKLLSLISYDQESGFIKNMAIIESNNNQYLAVGIIKLCGLEAVEAVFGVDERNKIVRKLCQRIAEKYAQCCDIVTFNADLYLLLCRENVQTFTRKIAMVNDFDSSFGYRNLRIHKSAICEPLQGENAWSYAEKLKLAISSIRDHMFSEFIFCDDAKLNEIEENIWIARNIRHAMEIGELFLVYQPIVDINTRAILGAEALCRWVSAERGIISPLKFITIAEDIGFINELGYQIIKTAMGEFRHFSQRASLKDDFLLHINVSPWQLNEPHFHERFTTIMKENGLKANSLCVEITETVIERINEHFYLNIEQLRKQGVRISIDDFGTGLSNLKRFYEINPDSIKVDSQFTGDIFGTAGKIVRIIFDLARYNRIPVIAEGVESEDVARELIKLGCVQAQGYLYQKPMPFSAWDKSGKLVKE,total protein half-life in vivo,[1],5.7 ± 1.7 h
same,total protein half-life in vivo,[2],7.04 ± 0.45 h
same,total protein half-life in vivo,[4],6.67 ± 0.23 h
same,total protein half-life in vivo,[5],6.334 ± 0.039 h
same,total protein half-life in vivo,[6],3 ± 0.23 h
same,total protein half-life in vivo,[7],5.9 ± 0.19 h
same,total protein half-life in vivo,[9],5.88 ± 0.38 h
same,total protein half-life in vivo,[10],12.8 ± 1.2 h
same,total protein half-life in vivo,[11],6.03 ± 0.13 h
same,total protein half-life in vivo,[12],11.8 ± 1 h
MNLEKINELTAQDMAGVNAAILEQLNSDVQLINQLGYYIVSGGGKRIRPMIAVLAARAVGYEGNAHVTIAALIEFIHTATLLHDDVVDESDMRRGKATANAAFGNAASVLVGDFIYTRAFQMMTSLGSLKVLEVMSEAVNVIAEGEVLQLMNVNDPDITEENYMRVIYSKTARLFEAAAQCSGILAGCTPEEEKGLQDYGRYLGTAFQLIDDLLDYNADGEQLGKNVGDDLNEGKPTLPLLHAMHHGTPEQAQMIRTAIEQGNGRHLLEPVLEAMNACGSLEWTRQRAEEEADKAIAALQVLPDTPWREALIGLAHIAVQRDR [P0AD57],total protein half-life in vivo,[1],4.19 ± 0.56 h
same,total protein half-life in vivo,[2],4.1 ± 0.06 h
same,total protein half-life in vivo,[3],3.69 ± 0.19 h
same,total protein half-life in vivo,[4],5.2 ± 0.3 h
same,total protein half-life in vivo,[5],4.09 ± 0.18 h
same,total protein half-life in vivo,[6],3.02 ± 0.1 h
same,total protein half-life in vivo,[7],5.42 ± 0.15 h
same,total protein half-life in vivo,[8],9.86 ± 0.44 h
same,total protein half-life in vivo,[9],3.93 ± 0.17 h
same,total protein half-life in vivo,[10],6.372 ± 0.062 h
same,total protein half-life in vivo,[11],5.64 ± 0.61 h
same,total protein half-life in vivo,[12],11.4 ± 0.24 h
